According to patent US20020165140A1 (ANGIOGENETICS SWEDEN, published 2002):

What was measured:
[1] = target: T1, GAL4 DBD (UniProt P04386 1-147, limits assumed); experiment: coimmunoprecipitation of 35S-IPAS with anti-GAL4 antibody, in vitro translated proteins
T1 construct: Control in the coprecipitation assay
Procedure: (§1) Precipitated fraction was analyzed by SDS PAGE and results were obtained by autoradiography.
(§2) After brief centrifugation, coimmunoprecipitated proteins were analyzed by SDS-PAGE.

[2] = target: T2, GAL4-HIF-1α/526-826 (UniProt P04386 1-147; Q16665 526-826); experiment: as above
T2 construct: In vitro translated
Procedure: as §1, §2

B1: Inhibitory PAS Domain Protein (IPAS), in vitro translated (other)
chain: MALGLQRVRSNTELRKEKSRDAARSRRSQETEVLYQLAHTLPFARGVSAHLDKASIMRLTISYLRMHRLCAAGGKRGRATGRLLPEGPGGFRHGTHRRGRHGLPVGKCQQAPGPQSVDLCSSSLIHNPTPGTNFSLELIGHSIFDFIHPCDQEELQDALTPRPNLSKKKLEAPTERHFSLRMKSTLTSRGRTLNLKAATWKVLHCSGHMRAYKPPAQTSPAGSPRSEPPLQCLVLICEAIPQLPFHDGATLGLPQEKTPISTLFTPLWKALLCLVKRWPVQVLQGKGTESSLPSWVLWALNRKNCPG
modifications: 35S-labeled methionine (in the coprecipitation assay)
notes: Polypeptide of 307 amino acids; generated by in vitro translation in rabbit reticulocyte lysate; also called mouse IPAS; mIPAS
[1]
  binding result: no binding
[2]
  binding result: no binding
